Laboratory results taken from the supplement of paper PMC12764529.
± gives the half width of the 95% confidence interval.

Experiments:
[1] = folding stability dG unfold (combined trypsin and chymotrypsin); higher = more stable
Procedure, shortened: (§1)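 Only designs with AlphaFold2 dimer inter-PAE above 15 were retained; each was a mini-protein under 80 residues with no cysteine, in a PA-tagged cDNA display construct. After digestion with trypsin and chymotrypsin and sequencing, K50 was inferred by Bayesian fitting of counts, and unfolding free energy was derived per protease or combined against a sequence-predicted unfolded-state K50 and a shared folded-state K50.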

[2] = folding stability dG unfold from chymotrypsin proteolysis; higher = more stable
Procedure, shortened: as §1

[3] = folding stability dG unfold from trypsin proteolysis; higher = more stable
Procedure, shortened: as §1

Sequence	folding stability dG unfold [1] [kcal/mol]	folding stability dG unfold [2] [kcal/mol]	folding stability dG unfold [3] [kcal/mol]
SAGGSAGMMATKPVEVEVEIPPDDPEAAKERVEAEIKAAFPGPVEVETTSYDPEKGLLKVKVVIKKSAGGSA [r15_1024_JUSTAS]	0.256 ± 0.33	0.0964 ± 0.19	-0.497 ± 0.41
SAGGSAGMMTDVEVEEYPGTGLVRITIRTPDAVVSGEGRFLSPELLEITISFPGAGKRTNELIPVRSAGGSA [r15_837_JUSTAS]	1.2 ± 0.088	1.26 ± 0.048	1.23 ± 0.072
SAGGSAGMPDPPLEGLKEALREALAANPGEEVTLTVPRADGRTLTVRGTKDGGIEITLPDGTRIALSAGGSA [r15_73_JUSTAS]	1.58 ± 0.072	1.52 ± 0.087	1.58 ± 0.036
SAGGSAGMPKVRIPIEEDPENGNILIRVKMPNSGREHEYHIPGNLKEAKENFEDHFGFDITDVEIWSAGGSA [r15_101_TrROS]	-0.0816 ± 0.38	-0.984 ± 0.58	0.364 ± 0.23
SAGGSAGMPSVTPVTVQMKGSREEAEAVAEELIEELRAKDPSVKVEAVEFSELPDGTYRVTITVTNSAGGSA [r15_718_JUSTAS]	3.49 ± 0.054	3.36 ± 0.057	3.71 ± 0.12
SAGGSAGMTPVSEAVVPGPNVTTLTTYRDPSSSALITPVTTTPPDGVPVTTTTLDLGSSTVTLSTTSAGGSA [r15_993_JUSTAS]	0.97 ± 0.082	0.583 ± 0.21	1.06 ± 0.053
SAGGSAGNPKPVVLEVEVVLDIPPENPDVLRAQAEAVARALAKPGLRVEVLDYDPDKAAFTIRITGSAGGSA [r15_563_TrMRF]	1.89 ± 0.077	1.84 ± 0.064	1.71 ± 0.039
SAGGSAGPALEIAKALTELYGAEEVTILDVHPDGYVHLHVRAVDYDDGEPVERELDVIFPIAPDDGSAGGSA [r15_646_TrMRF]	1.18 ± 0.11	1.52 ± 0.037	0.164 ± 0.06
SAGGSAGPDPKNKKIKVKVETFYLEDFGLKVEKIYIEGTGKPLLVFYFPDGSKLIINEDGTVKLIESAGGSA [r15_617_TrMRF]	2.89 ± 0.23	3.33 ± 0.14	1.79 ± 0.35
SAGGSAGPLERKVIVRTAPYTSPEEGEAYAEETKLAIASKLPESEKVTVEVTWDPETNTVTATIVSSAGGSA [r15_981_JUSTAS]	0.722 ± 0.16	1.14 ± 0.092	-0.491 ± 0.28
SAGGSAGPMSVKEYEFEAVVPPGEEEAWVEEYIKKEFKSKIVKIEVKREKLPDGTYRVPVKITVKESAGGSA [r15_138_JUSTAS]	0.775 ± 0.079	0.998 ± 0.12	0.433 ± 0.029
SAGGSAGPSSKPIPLYVLFLEVTKPGGEKLPLVKLVKSPEEALKIAEEIASKGYEVKLVLAPASEISAGGSA [r15_906_TrMRF]	2.88 ± 0.084	2.92 ± 0.07	2.74 ± 0.081
SAGGSAGSGFEEEAAAAFAASAGAMTLTVVEREPDSYTVATVTRTPGTGAPTVTVTTLSPETLAAASAGGSA [r15_156_JUSTAS]	0.701 ± 0.12	0.425 ± 0.13	0.904 ± 0.048
SAGGSAGVLEAVVFNPETGTFSVIPAAVLEKAFAANPADTELTFTLKDKPVKVFVFPGPGLAVVTGSAGGSA [r15_350_TrMRF]	1.45 ± 0.053	1.56 ± 0.061	1.14 ± 0.018
SAGGSAGVPPGGRVRVLVYNPLTGEVREVELPVGSLEEFLRGANLPAPLPDGRPAPVVVEILEVEPSAGGSA [r15_797_TrMRF]	2.64 ± 0.36	3.11 ± 0.081	1.77 ± 0.14
SAGGSAIDPRLLKLPKVKVEILSVEPVTGEDDKPFFVAKVKTDLEPGFYAYIILDPETGKIVKVFDSAGGSA [r15_66_TrMRF]	1.4 ± 0.072	1.57 ± 0.093	1.19 ± 0.038
SAGGSAIEIEPAPDNVLVVTADLPPNVPAEKLVEALKDLIPDVEFETSSSADGRHVIVLRLPPDVFSAGGSA [r15_1047_TrMRF]	1.05 ± 0.07	0.961 ± 0.06	1.05 ± 0.044
SAGGSAIENQFLRITMYHGNKPHTWTFPIKKVDIDPEDGNIEVYFPPEFRELFGGPMRITDIEFPPSAGGSA [r15_710_TrROS]	1.46 ± 0.067	1.63 ± 0.071	1.14 ± 0.019

Sequence	folding stability dG unfold [1] [kcal/mol]	folding stability dG unfold [2] [kcal/mol]	folding stability dG unfold [3] [kcal/mol]
SAGGSAIKLPSGVKIEFKKTEDGKYIVRVTLPDGKPIELEFEGDPEGPNNITPEEINDAILEKIKSSAGGSA [r15_780_TrMRF]	3.06 ± 0.081	3.23 ± 0.056	2.67 ± 0.11
SAGGSAIVIPVKSWEEFVEALKNAPASVEIIADLPDGNVIKAKIDPSKGPKIIITEVFPVPPELAGSAGGSA [r15_577_TrMRF]	0.859 ± 0.11	1.06 ± 0.053	0.515 ± 0.036
SAGGSAIWIPADEIRELAKEPGLEVEKEPQPDGMLHFTIKNPKNGKRITIVVWDPENGWWHIMPIPSAGGSA [r15_442_TrROS]	0.928 ± 0.083	0.854 ± 0.098	0.947 ± 0.019
SAGGSAKEALVKAVEELFKKLFPDEPIEVLKVDPEKGRITIKVNSDEARKALEKALKELGIEVDLDSAGGSA [r15_196_TrMRF]	3.34 ± 0.11	2.91 ± 0.092	3.75 ± 0.11
SAGGSAKGKKTRTITIMAPFDNKEEAREQAEEIADNIMNNLPDDMKIKVEVSWNPEDNYVMATIRISAGGSA [r15_981_TrROS]	0.707 ± 0.25	0.842 ± 0.11	0.404 ± 0.3
SAGGSAKIEEIASLPAEEIAEAFGLTVISATVERFEDGTVVLTVEIAPPLGPPIRVTFVFGVDPEKSAGGSA [r15_805_TrMRF]	3.75 ± 0.058	4.19 ± 0.061	2.21 ± 0.045
SAGGSAKIEIERIEPRPVLVPRPDGSLVPVPEVEVELRIEGDPEKMEEEERKKIEALAEEIAKELGSAGGSA [r2_40_TrMRF]	0.428 ± 0.16	0.736 ± 0.056	-0.508 ± 0.16
SAGGSAKIEITIFIPGMSEEEVKKLAEELAEELRKKGLSDEEIKEIKIKVYKVPVYKTEDGKLVKVSAGGSA [r15_684_TrROS_Hall]	1.44 ± 0.089	1.82 ± 0.059	0.884 ± 0.046
SAGGSAKITIEKVDDQYRITVTVPVYDENGNKVPLTFDFVYPSDDPDAFLDDVIRRIRELNPDLEKSAGGSA [r15_1050_TrMRF]	2.77 ± 0.1	3.01 ± 0.084	2.3 ± 0.073
SAGGSAKITIKPGETITITIKLENGETVEIRMRVEELPDGTYKITMEITYPDGSKIEMELTLKIKPSAGGSA [r15_476_TrROS_Hall]	4.05 ± 0.44	4.43 ± 0.18	2.58 ± 0.21
SAGGSAKKIKIFSLEELRERFPDLSEEELKKRAEELAKELAERLKEEGKPVEVEIVEVKLPEEEKKSAGGSA [r15_287_TrROS_Hall]	1.69 ± 0.094	2.107 ± 0.015	0.382 ± 0.13
SAGGSAKKKIKIKVKNKDGSVYELEFDEENGIVKITYKDGKKEELSVEELKKLPLPKNITEVEIVPSAGGSA [r15_1043_TrROS_Hall]	2.25 ± 0.059	2.59 ± 0.036	1.57 ± 0.043
SAGGSAKKKKVTITIEVVKNKETGEYLVRIKIKVDGKEYEIVMSEDELKALIDAGVKIEKIEVYPRSAGGSA [r15_783_TrROS_Hall]	2.59 ± 0.1	2.99 ± 0.082	1.6 ± 0.017
SAGGSAKKKVTITVEKKGDKYLVTIEVDGKTVVIEVPKDTTIEEIAAALPPGAKIKEIKVVKAEELSAGGSA [r15_1058_TrROS_Hall]	1.16 ± 0.067	1.33 ± 0.031	0.716 ± 0.034
SAGGSAKKLPAEAVAKELAERLSKELGLTIKRVEVEVIDPEKGLVRVTVVYETPYGYLKREILLPVSAGGSA [r15_32_TrMRF]	3.31 ± 0.1	3.825 ± 0.033	1.83 ± 0.026
SAGGSAKKPKWIPIKIKLPGSLEEAREWAEEIAKWLAKQNGDIKIDAIKYERDPNGHVEVTIQVRVSAGGSA [r15_718_TrROS]	3.36 ± 0.086	3.83 ± 0.059	2.36 ± 0.066
SAGGSAKKTLKIKVKTPKGGLKTIEIPDSVKKIDIIPGKDYVKIIIYNPKTKKKIELPPFKVIEISSAGGSA [r15_133_TrMRF]	1.79 ± 0.086	2.01 ± 0.031	1.26 ± 0.047
SAGGSAKKYIVLAKIKEVKVTKTYKTKNGKKVKVTVKVEIKVEPVKVFKIKKDKNGNWKIEPGEVLSAGGSA [r15_162_TrROS_Hall]	3.14 ± 0.28	2.88 ± 0.14	2.96 ± 0.15
